In publication PMC4948710:

How the values were obtained:
[1] = target: Nematostella vectensis β-catenin, full length (Nematostella vectensis); assay: ITC
[2] = target: F-actin polymerised from chicken muscle G-actin (chicken) (UniProt P68139); assay: co-sedimentation

Nematostella vectensis Cadherin-1 cytoplasmic region (domain or fragment)
Kd [1]: 7.9 nM

Nematostella vectensis Cadherin-2 cytoplasmic region (domain or fragment)
Kd [1]: 1.3 nM

Nematostella vectensis α-catenin lacking the insert (residues 638-1,021 deleted) (domain or fragment)
Kd [2]: > 12000 nM

Nematostella vectensis α-catenin, full length (natural protein)
Kd [2]: 800 nM
